This experiment deals with all six recombinant human Tau isoforms. The experiment in a line: immunoaffinity purification on 13A6 beads, trypsin digestion and LC-MS/MS, with against without purification.

B1: mouse monoclonal anti-Tau antibody clone 13A6 (antibody, V domains shown)
VH: EVQLQQSGAELVRPGASVKLPCTASGFNIKDDYMNWVMQRPERGLEWIGWIDPENGDTAYASKFQGKATMTADTSSNTAYLQLSSLTSEDTAVYYCTSGGRFDYWGQGTSLTVSS
VL: DVLMTQTPLSLPVSLGDQASISCRSSQSIVHSNGSTYLEWYLQKPGQSPKLLIYKVSNRFSGVPDRFSGSGSGTDFTLKINRVEAEDLGVYYCFQGSHVPWTFGGGTKLEIK
As to B1, the percent recovery was 60 to 75%.

(Values after US20150253341A1.)
